Reference: publication PMC6329974 (Proceedings of the National Academy of Sciences of the …, 2018)

B2: CP α-subunit from Archaeoglobus fulgidus (natural protein, UniProt O29760 1-246, looked up)
chain: MHLPQMGYDRAITVFSPDGRLFQVEYAREAVKRGATAIGIKCKEGVILIADKRVGSKLLEADTIEKIYKIDEHICAATSGLVADARVLIDRARIEAQINRLTYDEPITVKELAKKICDFKQQYTQYGGVRPFGVSLLIAGVDEVPKLYETDPSGALLEYKATAIGMGRNAVTEFFEKEYRDDLSFDDAMVLGLVAMGLSIESELVPENIEVGYVKVDDRTFKEVSPEELKPYVERANERIRELLKK
B3: proteasome-activating nucleotidase (PAN) from Archaeoglobus fulgidus (enzyme, UniProt O28303 1-398, looked up)
chain: MGDSEIQYLLEKLKKLEEDYYKLRELYRRLEDEKKFIESERIRYEREVRRLRSEVERLRSPPLLVGVVSDILEDGRVVVKSSTGPKFVVNTSQYINEEELKPGARVALNQQTLAIVNVLPTSKDPMVYGFEVEEKPEVSYEDIGGLDVQIEEIREAVELPLLKPELFAEVGIEPPKGVLLYGPPGTGKTLLAKAVANQTRATFIRVVGSEFVQKYIGEGARLVREVFQLAKEKAPSIIFIDELDAIAARRTNSDTSGDREVQRTMMQLLAELDGFDPRGDVKVIGATNRIDILDPAILRPGRFDRIIEVPLPTFEGRIQIFKIHTRKMKLAEDVDFKELARITEGASGADIKAICTEAGMFAIREERAKVTMLDFTKAIEKVLKKTTPIPDLKGVMFV

Columns and labels:
Assay in all cases: cryo-EM structure
[1] = target: B2
[2] = target: the molecule itself
[3] = target: B3
[4] = target: the molecule itself; remark: listed apart in the source

B1: CP β-subunit from Archaeoglobus fulgidus (natural protein, UniProt Q9P996 12-213, looked up)
chain: TTTVGLVCKDGVVMATEKRATMGNFIASKAAKKIYQIADRMAMTTAGSVGDAQFLARIIKIEANLYEIRRERKPTVRAIATLTSNLLNSYRYFPYLVQLLIGGIDSEGKSIYSIDPIGGAIEEKDIVATGSGSLTAYGVLEDRFTPEIGVDEAVELAVRAIYSAMKRDSASGDGIDVVKITEDEFYQYSPEEVEQILAKFRK
B1: binds [1]; binds [2].

B2: binds [3].

In the case of B3, the “stoichiometry N” value [4] is reported as 6.
